Test results as given in US20190017096A1.

Biological target: Rab6a (Ras-related protein Rab-6A) (Homo sapiens (Human)) (UniProt P20340)
Assay: cell-based or functional assay

Sequence of UniProt P20340 (P20340 whole entry): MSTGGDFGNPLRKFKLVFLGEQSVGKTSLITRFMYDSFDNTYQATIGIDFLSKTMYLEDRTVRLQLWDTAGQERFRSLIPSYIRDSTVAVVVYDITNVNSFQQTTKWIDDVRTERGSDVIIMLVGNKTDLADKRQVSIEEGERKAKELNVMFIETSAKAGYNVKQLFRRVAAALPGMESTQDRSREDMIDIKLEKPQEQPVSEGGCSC

Row | band intensity of biotinylated Rab6a (FIG. 3) compared to biotinylated Rab27a (FIG. 2), positive controls spiked with fish REP1 | biotinylated substrate with Rab6a compared to Rab27a (in vitro prenylation, WB; untransduced 293 lysate, endogenous REP1, FIG. 9) | strength of the WB signal for biotinylated Rab6a (FIG. 3) compared to biotinylated Rab27a (FIG. 2), AAV-REP1 transduced cells | Substance
1 | 100 fold |  |  | fish REP1
2 |  | 2.5 fold | 10 fold | human Rab escort protein 1 (REP1) (from UniProt P24386 1-653)
